{
  "source": "patent US8383602B2",
  "about": "“Use of TRIM72 as a target for muscle and heart enhancer” (Korea University Industrial & Academic Collaborative …, priority 2007, dated 2013)",
  "molecules": {"B1": {"name": "C14A TRIM72: TRIM72 mutant protein in which the 14th amino acid is substituted from cystine to alanine (protein, listed as Mus musculus)", "chain": "MSAAPGLLRQELSAPLCLQLFDAPVTAECGHSFCRACLIRVAGEPAADGTVACPCCQAPTRPQALSTNLQLSRLVEGLAQVPQGHCEEHLDPLSIYCEQDRTLVCGVCASLGSHRGHRLLPAAEAQARLKTQLPQQKMQLQEACMRKEKTVAVLEHQLVEVEETVRQFRGAVGEQLGKMRMFLAALESSLDREAERVRGDAGVALRRELSSLNSYLEQLRQMEKVLEEVADKPQTEFLMKFCLVTSRLQKILSESPPPARLDIQLPVISDDFKFQVWKKMFRALMPALEELTFDPSSAHPSLVVSSSGRRVECSDQKAPPAGEDTRQFDKAVAVVAQQLLSQGEHYWEVEVGDKPRWALGVMAADASRRGRLHAVPSQGLWLLGLRDGKILEAHVEAKEPRALRTPERPPARIGLYLSFADGVLAFYDASNPDVLTPIFSFHERLPGPVYPIFDVCWHDKGKNAQPLLLVGPEQEQA", "modifications": "or SEQ ID NO 2", "notes": "TRIM72 mutant protein in which the 14th amino acid is substituted from cystine to alanine"}, "B2": {"name": "TRIM72: TRIM72 protein (SEQ ID NO: 1 or 2) or its gene, overexpressed via adenoviral vector or plasmid; negative regulator of muscle differentiation (protein)", "chain": "MSAAPGLLHQELSCPLCLQLFDAPVTAECGHSFCRACLGRVAGEPAADGTVLCPCCQAPTRPQALSTNLQLARLVEGLAQVPQGHCEEHLDPLSIYCEQDRALVCGVCASLGSHRGHRLLPAAEAHARLKTQLPQQKLQLQEACMRKEKSVAVLEHQLVEVEETVRQFRGAVGEQLGKMRVFLAALEGSLDCEAERVRGEAGVALRRELGSLNSYLEQLRQMEKVLEEVADKPQTEFLMKYCLVTSRLQKILAESPPPARLDIQLPIISDDFKFQVWRKMFRALMPALEELTFDPSSAHPSLVVSSSGRRVECSEQKAPPAGEDPRQFDKAVAVVAHQQLSEGEHYWEVDVGDKPRWALGVIAAEAPRRGRLHAVPSQGLWLLGLREGKILEAHVEAKEPRALRSPERRPTRIGLYLSFGDGVLSFYDASDADALVPLFAFHERLPRPVYPFFDVCWHDKGKNAQPLLLVGPEGAEA", "modifications": "left off: small tags and cut ends", "notes": "negative regulator of muscle differentiation"}},
  "assay_type_in_all_cases": "cell-based",
  "key": {"IRS-1 [1]": {"tested_on": "IRS-1", "assay": "IRS-1 expression in 293 cells co-transfected with TRIM72", "conditions": "IRS-1 and TRIM72 transfected, FIG. 11A", "experimental": "(§1) A. IRS-1 (6 μg) and TRIM72 (2 μg) were transfected into HEK 293 cells for 30 hours and expression of IRS-1 and TRIM72 was investigated after treating with the proteosomal degradation inhibitor MG132 for 10 hours. B. IRS-1 (3 μg) and TRIM72 at various concentrations (0, 0.5, 1, 2 μg) were transfected into 293 cells for 30 hours and expression of IRS-1 was investigated. C. HA-TRIM72 (or HA-TRIM72 C14A), Flag-IRS-1 and His-ubiquitin were transfected into 293 cells for 30 hours and MG132 was treated for 10 hours. Ubiquitination of IRS-1 was identified by immunoblotting using His after immunoprecipitation with Flag antibody. Red brace denotes ubiquitination of IRS-1.\n(§2) IRS-1 constructs (full-length, 1-3729; PH-PTB domain, 1-900; Mid-region, 880-2608; Rear-region, 2581-3729) and TRIM72 cDNA constructs (full-length, 1-1431; ΔRING, 181-1431; coiled-coil, 367-1020; CCSPRY, 367-1431; SPRY, 687-1431; Δcoiled-coil) were generated by PCR using the primers described in Table 1 and cloned into pCMV-Tag2B vector and pCMV-3Tag4a vector (Stratagene), respectively. […] Luciferase activity in cell lysates was measured by using the luciferase assay system (Promega) in a Luminoskan Ascent (Thermo Labsystem). […]\n(§3) Western blotting and immunostaining were performed as described in Kim, K. B. et al. Proteomics 6, 2444-53 (2006). […] The immunoprecipitates were analyzed by Western blotting."}, "TRIM72 promoter [2]": {"tested_on": "TRIM72 promoter", "assay": "TRIM72 promoter-luciferase activity during muscle differentiation, pharmacological inhibitors", "conditions": "FIG. 14A", "experimental": "(§4) A. CEMI promoter-luciferase fused gene having E2 and E3 was expressed in C2C12 myoblasts for 24 hours and muscle differentiation into myotubes was induced for 24 hours. While inducing muscle differentiation, PI3K inhibitor (LY294002, 10 μM), mTOR inhibitor (rapamycin, 100 nM), GSK3β inhibitor (LiCl, 5 mM) and MAPK inhibitor (PD98059, 10 μM) were treated and luciferase activity was measured. B. CEMI promoter-luciferase fused gene having E2 and E3 and MyoD gene were expressed in C2C12 myoblasts for 24 hours. After treating with various agents for 24 hours, luciferase activity was measured. C. […] After inducing muscle differentiation into myotubes for 24 hours, luciferase activity was measured. […] After inducing differentiation for 24 hours, luciferase activity was measured.\nas §2"}, "TRIM72 promoter [3]": {"tested_on": "TRIM72 promoter", "assay": "MyoD-dependent TRIM72 promoter-luciferase activity in myoblasts, pharmacological inhibitors", "conditions": "agents treated 24 hours, FIG. 14B", "experimental": "as §4, §2"}, "C2C12 myoblasts [4]": {"tested_on": "C2C12 myoblasts", "assay": "Muscle differentiation of C2C12 myoblasts transfected with wild type or mutant TRIM72 genes", "conditions": "genes expressed in C2C12 myoblasts, differentiation induced, FIG. 10B", "experimental": "(§5) C2C12 cells were purchased from ATCC and grown in Dulbecco's modified Eagle's medium (DMEM) supplemented with 2% penicillin/streptomycin (WelGene) and 10% fetal bovine serum (WelGene) in a 5% CO2 incubator at 37° C. Confluent C2C12 myoblasts were differentiated into myotubes by incubation with DMEM supplemented with the same antibiotics and 2% horse serum. Every 48 hours, the myotubes were fed with fresh DMEM containing 2% horse serum. Male C57BL/Ksj mice were maintained on a controlled lighting schedule, with a 12-h dark period. Twenty-week-old mice were used in all of the experiments in this study.\nas §2, with “respectively. Alternatively, TRIM72 and TRIM72 C14A were generated by PCR reaction using the primers described in Table 1 and cloned into pHM6-HA vector, pCMV-Tag2B or pHM6 vector (Roche).” for “respectively.”"}, "IRS-1 [5]": {"tested_on": "IRS-1", "assay": "IRS-1 ubiquitination in 293 cells", "conditions": "TRIM72, IRS-1 and ubiquitin co-expressed in 293 cells, MG132 treated, FIG. 11C", "experimental": "as §1\n293T cells are transfected with pCMV-HA-TRIM72 (1 μg) or pCMV-HA-TRIM72 C14A (1 μg) and pCMV-Flag-IRS-1 (3 μg) and His-ubiquitin (3 μg) using Polyfect (Qiagen). Twenty-four hours after transfection, cells were treated with MG132 (5 μM) for 12 h. Cell lysates were immunoprecipitated with anti-Flag for 2 h. The immunoprecipitates were analyzed by Western blotting against anti-His antibody."}, "C2C12 myoblasts [6]": {"tested_on": "C2C12 myoblasts", "assay": "Muscle differentiation (myogenesis) after TRIM72 overexpression by adenoviral vector or TRIM72 interference by SiRNA", "experimental": "as §5\n(§6) An adenoviral vector with TRIM72 was constructed using ViraPower™ Adenoviral Expression System (Invitrogen) under control of the cytomegalovirus (CMV). Full-length-TRIM72 ORF (open reading frame) was cloned into an entry vector pENTR (Invitrogen) using the restriction enzyme sites (SalI and NotI) and homologously recombined into a destination vector pAd/CMV/V5-DEST (Invitrogen) which has the adenoviral genome and CMV promotor. The cloned TRIM72-adenoviral genome was linearlized by cutting with PacI restriction enzyme and transfected into 293A cells using a transfection agent (GenePorter II). After 10-15 days of the transfection, the supernatant comprising adenovirus was re-transfected into 293A cells to obtain the amplified adenovirus. The obtained adenovirus supernatant was purified into adenovirus particles using cessium chlororide. C2C12 myoblasts grown in 6 well plates were infected by adenovirus with the dosage of 4×10^10 VP/ml.\n(§7) SiRNA oligomer targeting TRIM72 was designed from Dharmacon. Target sequence of TRIM72 is 5′-[…]-3′. The cell cultures were transfected with control RNAi and TRIM72 specific siRNA using transfection reagent (TransIT®-TKO, Mirus), which was prepared according manufacturer's instruction. Transfected cells were then transferred to media containing 2% horse serum at least for 48 h.\nWestern blotting and immunostaining were performed as described in Kim, K. B. et al. Proteomics 6, 2444-53 (2006). For immunoprecipitation, cells were lysed in buffer containing 20 mM Tris-HCl pH 7.4, 137 mM NaCl, 1 mM MgCl2, 1 mM CaCl2, 20 mM NaF, 10 mM Na4P2O7, 1% NP-40, 1 mM Na3VO4, 1 mM PMSF and protease inhibitor cocktail (Roche). The whole cell lysates (600 μg protein) were incubated with specific antibodies for 90 min and then with 50 μl of Protein A-sepharose or G-agarose bead (50%) slurry for 1 h. The immunoprecipitates were analyzed by Western blotting."}, "AKT": {"tested_on": "AKT", "assay": "IGF-1-induced AKT phosphorylation after TRIM72 overexpression or knockdown", "conditions": "myoblasts (overexpression) / myotubes (knockdown), FIG. 7A", "source_text": "as §6\n(§8) SiRNA oligomer targeting TRIM72 was designed from Dharmacon. Target sequence of TRIM72 is 5′-[…]-3′. The cell cultures were transfected with control RNAi and TRIM72 specific siRNA using transfection reagent (TransIT®-TKO, Mirus), which was prepared according manufacturer's instruction. […]\nas §3"}, "ERK1/2": {"tested_on": "ERK1/2", "assay": "IGF-1-induced ERK1/2 phosphorylation after TRIM72 overexpression or knockdown", "conditions": "myoblasts (overexpression) / myotubes (knockdown), FIG. 7A", "source_text": "as §6, §8, §3"}, "PI3K": {"tested_on": "PI3K", "assay": "IGF-1-induced PI3K activation (PI(3)K activity of anti-p85 immunoprecipitates)", "conditions": "FIG. 7B", "source_text": "as §6\nas §7, with “h. […]” for “h.”"}, "IGFR": {"tested_on": "IGFR", "assay": "IGF-I-induced tyrosine phosphorylation of IGFR (immunoprecipitation)", "conditions": "FIG. 8", "source_text": "as §6, §8, §3"}, "IRS-1 [7]": {"tested_on": "IRS-1", "assay": "IGF-I-induced tyrosine phosphorylation of IRS-1 (immunoprecipitation)", "conditions": "IGF-I stimulation, FIG. 8", "source_text": "as §6, §8, §3"}, "IRS-1 with PI3K": {"tested_on": "IRS-1 with PI3K", "assay": "Molecular association of IRS-1 with PI3K after IGF-I stimulation (immunoprecipitation)", "conditions": "FIG. 8", "source_text": "as §6, §8, §3"}, "M-Cadherin": {"tested_on": "M-Cadherin", "assay": "M-Cadherin expression after TRIM72 overexpression or Si-RNA", "conditions": "FIGS. 12C-12E", "source_text": "as §6, §8, §3"}},
  "note": "Residues, ends and D or L forms follow the SMILES beside them. *: point of attachment. Cbz = O=C(OCc1ccccc1)*",
  "data": [
    {"molecule": "CC(C)C[C@@H](C=O)NC(=O)[C@H](CC(C)C)NC(=O)[C@H](CC(C)C)NC(=O)OCc1ccccc1", "note": "[MG132, reference compound] (Cbz-Leu-Leu-Leu-aldehyde)", "values": [
      {"measurement": "expression of IRS-1", "setting": "IRS-1 [1]", "value": "expressed normally"}
    ]},
    {"molecule": "O=c1cc(N2CCOCC2)oc2c(-c3ccccc3)cccc12", "note": "[LY294002]", "values": [
      {"measurement": "decrease of TRIM72 transcription in IGF-I induced muscle differentiation", "setting": "TRIM72 promoter [2]; LY294002 10 μM", "value": 4, "unit": "times"}
    ]},
    {"molecule": "[Cl-].[Li+]", "note": "[LiCl]", "values": [
      {"measurement": "change of TRIM72 transcription in IGF-I induced muscle differentiation", "setting": "TRIM72 promoter [2]; rapamycin 100 nM, LiCl 5 mM", "value": "no change"},
      {"measurement": "MyoD-dependent TRIM72 transcription in myoblasts", "setting": "TRIM72 promoter [3]", "value": "not affected"}
    ]},
    {"molecule": "B1", "values": [
      {"measurement": "muscle differentiation", "setting": "C2C12 myoblasts [4]", "value": "enhanced"},
      {"measurement": "IRS-1 ubiquitination", "setting": "IRS-1 [5]", "value": "completely inhibited"}
    ]},
    {"molecule": "B2", "values": [
      {"measurement": "myogenesis", "setting": "C2C12 myoblasts [6]; C2C12, FIG. 6A (H&E staining)", "value": "prevented"},
      {"measurement": "myogenesis as determined by expression level of myogenesis marker proteins (myogenin, caveolin-3 and MyHC) and nucleus number per myotubes", "setting": "C2C12 myoblasts [6]; C2C12, FIGS. 6C and 6D", "value": "completely prevented"},
      {"measurement": "amount of MyHC", "setting": "C2C12 myoblasts [6]; C2C12, MyHC staining, FIG. 6B", "value": "decreased"},
      {"measurement": "fusion between cells", "setting": "C2C12 myoblasts [6]; overexpression in myoblasts, FIG. 6", "value": "completely inhibits"},
      {"measurement": "IGF-1-induced AKT phosphorylation", "setting": "AKT", "value": "inhibited"},
      {"measurement": "IGF-1-induced ERK1/2 phosphorylation", "setting": "ERK1/2", "value": "not changed"},
      {"measurement": "IGF-1-induced PI3K activation", "setting": "PI3K", "value": "abrogated"},
      {"measurement": "tyrosine phosphorylation of IGFR induced by IGF-I", "setting": "IGFR", "value": "not changed"},
      {"measurement": "tyrosine phosphorylation of IRS-1", "setting": "IRS-1 [7]", "value": "decreased"},
      {"measurement": "molecular association of IRS-1 with PI3K after IGF-I stimulation", "setting": "IRS-1 with PI3K", "value": "weakened"},
      {"measurement": "muscle differentiation", "setting": "C2C12 myoblasts [4]", "value": "inhibited"},
      {"measurement": "expression of IRS-1", "setting": "IRS-1 [1]", "value": "decreased"},
      {"measurement": "IRS-1 ubiquitination", "setting": "IRS-1 [5]", "value": "increased"},
      {"measurement": "expression of M-Cadherin", "setting": "M-Cadherin", "value": "decreased"}
    ]}
  ]
}
